Here are results for two sequences from article PMC4632033.

In this data set the target is T1, XisR (YdaQ), rac excisionase (Escherichia coli K-12 (BW25113; MS match MG1655)) (UniProt P76057).
T1 sequence: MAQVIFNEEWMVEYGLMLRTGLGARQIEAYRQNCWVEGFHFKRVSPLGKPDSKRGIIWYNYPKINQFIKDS
Briefly: EMSA. Particulars: LightShift Chemiluminescent EMSA kit protocol (binding buffer not stated), 25 C, 1 h; 0.5x TBE polyacrylamide gel; protein stored in 20 mM Tris-HCl, 500 mM …. (Mobility shift assays separate free from complexed probe on a gel.)

“AGATTTCTTATGCTGGGCGTTCCGGCATGACGCATACTCTTCTGATGCCATATAACGAATTGAGTCGCTTTTAAATGTCGCAAAATCAAGAAATTAGTAAGAAAGAACAATACAACCTGAACAAGTAAGGGCAAAAATCACAACTCTCTGACTCATAAGTATTTTACTTATTTTTCAATGTGTTAAATATCATCAGCGACAACAATAAGCTACGATAATCCACTCTTTTTTTGCCCCTTTTTTGCCCCTTTTGCAGCGTTTTGCCCCATTTTTGCCACCGAAAAAAATTCCAAA (double strand) [AttR]”: the binding result is “binds”. The same measure for “CTATATGCCTTTGATGCGGAGGAATGAATGTGATGGGAGTGATGTATCTGAATAGTTGAAAAACCGCAGTCACGTCGTATGCAAGAACGTGCTGCGGTTGGTTTGACTTTGATTGAGACGTTTTGGAATTTTTTTCGGTGGCAAAAATGGGGCAAAACGCTGCAAAAGGGGCAAAAAAGGGGCAAAAAAAGAGTGGATTATCGTAGCTTATTGTTGTCGCTGATGATATTTAACACATTGAAAAATAAGTAAAATACTTATGAGTCAGAGAGTTGTGATTTTTGCCCTTAC (double strand) [AttM]”: “no binding”.
